Data as given in article PMC6477699, “Phylogenetic Analyses and GAGA-Motif Binding Studies of BBR/BPC Proteins Lend to Clues in GAGA-Motif Recognition and a Regulatory Role in Brassinosteroid Signaling”.

Tests used:
GFP-BPC6 [1] = biological target: T1, GFP-BPC6 (Arabidopsis thaliana, UniProt Q8L999 1-342); assay: qDPI-ELISA; similar to the other 2x GAGA probes; DPI-ELISA/qDPI-ELISA: 3 ug total E. coli protein extract and 2 pmol biotinylated dsDNA per well in buffered solution; salt, pH and temperature not stated (cited protocols); conditions: protein: recombinant; tags: GFP fusion; label: biotin on sense strand
T1 sequence: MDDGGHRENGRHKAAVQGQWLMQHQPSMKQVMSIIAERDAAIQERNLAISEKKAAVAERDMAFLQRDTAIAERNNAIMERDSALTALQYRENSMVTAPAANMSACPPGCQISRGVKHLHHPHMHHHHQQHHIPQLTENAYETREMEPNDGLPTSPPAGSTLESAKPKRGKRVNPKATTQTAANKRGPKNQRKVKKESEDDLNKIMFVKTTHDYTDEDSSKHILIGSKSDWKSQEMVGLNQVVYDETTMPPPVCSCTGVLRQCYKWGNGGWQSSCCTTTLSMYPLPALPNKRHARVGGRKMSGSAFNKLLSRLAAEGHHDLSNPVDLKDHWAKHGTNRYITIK

GFP-BPC6 [2] = biological target: T1, GFP-BPC6; assay: qDPI-ELISA; negative binding probe, used as background; DPI-ELISA/qDPI-ELISA: 3 ug total E. coli protein extract and 2 pmol biotinylated dsDNA per well in buffered solution; salt, pH and temperature not stated (cited protocols); conditions: protein: recombinant; tags: GFP fusion; label: biotin on sense strand
BPC1 [3] = biological target: T2, BPC1 (Arabidopsis thaliana, UniProt Q9SKD0 1-283); assay: DPI-ELISA; DPI-ELISA/qDPI-ELISA: 3 ug total E. coli protein extract and 2 pmol biotinylated dsDNA per well in buffered solution; salt, pH and temperature not stated (cited protocols); conditions: protein: recombinant; tags: N-terminal 6xHis (pET32b-GW); label: biotin on sense strand
T2 sequence: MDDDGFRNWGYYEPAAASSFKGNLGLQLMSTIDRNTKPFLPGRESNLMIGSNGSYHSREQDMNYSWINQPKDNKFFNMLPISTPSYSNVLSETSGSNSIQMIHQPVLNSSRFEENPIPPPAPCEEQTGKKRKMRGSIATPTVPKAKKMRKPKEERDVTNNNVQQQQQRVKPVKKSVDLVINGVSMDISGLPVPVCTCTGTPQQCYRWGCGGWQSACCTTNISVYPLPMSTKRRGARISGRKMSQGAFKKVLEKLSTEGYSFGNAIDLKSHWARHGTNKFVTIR

GFP-BPC6 [4] = biological target: T1, GFP-BPC6; assay: qDPI-ELISA; DPI-ELISA/qDPI-ELISA: 3 ug total E. coli protein extract and 2 pmol biotinylated dsDNA per well in buffered solution; salt, pH and temperature not stated (cited protocols); conditions: protein: recombinant; tags: GFP fusion; label: biotin on sense strand
BPC1 [5] = biological target: T2, BPC1; assay: DPI-ELISA; comparable to K4; DPI-ELISA/qDPI-ELISA: 3 ug total E. coli protein extract and 2 pmol biotinylated dsDNA per well in buffered solution; salt, pH and temperature not stated (cited protocols); conditions: protein: recombinant; tags: N-terminal 6xHis (pET32b-GW); label: biotin on sense strand
GFP-BPC6 [6] = biological target: T1, GFP-BPC6; assay: qDPI-ELISA; 2.5-times lower than BKn3; DPI-ELISA/qDPI-ELISA: 3 ug total E. coli protein extract and 2 pmol biotinylated dsDNA per well in buffered solution; salt, pH and temperature not stated (cited protocols); conditions: protein: recombinant; tags: GFP fusion; label: biotin on sense strand
BPC1-WARH = biological target: T3, BPC1-WARH (Arabidopsis thaliana, UniProt Q9SKD0 1-270); assay: DPI-ELISA; DPI-ELISA/qDPI-ELISA: 3 ug total E. coli protein extract and 2 pmol biotinylated dsDNA per well in buffered solution; salt, pH and temperature not stated (cited protocols); conditions: protein: recombinant; tags: N-terminal 6xHis (pET32b-GW); label: 5' or 3' biotin not specified, sense strand biotin
T3 sequence: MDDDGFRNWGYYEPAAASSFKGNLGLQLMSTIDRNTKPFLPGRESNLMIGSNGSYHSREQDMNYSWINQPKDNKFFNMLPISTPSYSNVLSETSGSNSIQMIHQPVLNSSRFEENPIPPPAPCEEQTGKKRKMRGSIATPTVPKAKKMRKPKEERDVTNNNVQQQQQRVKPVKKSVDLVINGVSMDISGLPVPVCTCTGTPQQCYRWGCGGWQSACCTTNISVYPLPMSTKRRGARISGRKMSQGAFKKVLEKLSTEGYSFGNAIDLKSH

BPC1-TIR = biological target: T4, BPC1-TIR (Arabidopsis thaliana, UniProt Q9SKD0 1-280); assay: DPI-ELISA; about 30% less than wild type; DPI-ELISA/qDPI-ELISA: 3 ug total E. coli protein extract and 2 pmol biotinylated dsDNA per well in buffered solution; salt, pH and temperature not stated (cited protocols); conditions: protein: recombinant; tags: N-terminal 6xHis (pET32b-GW); label: 5' or 3' biotin not specified, sense strand biotin
T4 sequence: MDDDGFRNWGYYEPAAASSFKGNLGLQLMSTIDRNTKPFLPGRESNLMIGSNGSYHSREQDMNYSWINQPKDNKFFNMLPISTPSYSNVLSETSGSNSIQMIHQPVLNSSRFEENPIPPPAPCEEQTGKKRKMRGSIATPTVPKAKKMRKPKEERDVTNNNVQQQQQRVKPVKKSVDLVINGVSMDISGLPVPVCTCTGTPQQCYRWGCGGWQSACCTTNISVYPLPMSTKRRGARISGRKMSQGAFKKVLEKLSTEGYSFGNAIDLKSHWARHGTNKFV

B1: K12 (dsDNA)
DNA 1: AATTGGAAATATGGAGAGAGAAAACAAATC
DNA 2: GATTTGTTTTCTCTCTCCATATTTCCAATT
B1: binds (GFP-BPC6 [1]).

B2: K4mut7mut5 (dsDNA)
DNA 1: TAAAGGAGCAAGTAAGAGAACGAGAGTTTC
DNA 2: GAAACTCTCGTTCTCTTACTTGCTCCTTTA
B2: binds (GFP-BPC6 [1]).

B3: Kneg (dsDNA)
DNA 1: TAATGCAGCAAGTAAGACTACGACTGTTTC
DNA 2: GAAACAGTCGTAGTCTTACTTGCTGCATTA
B3: no binding (GFP-BPC6 [2]).

B4: BKn3 (dsDNA)
DNA 1: CCGCCATTAATTCATGAGAGAGAGAGAGAGACCAGAGATAA
DNA 2: TTATCTCTGGTCTCTCTCTCTCTCTCATGAATTAATGGCGG
B4 was tested, and the binding signal (BPC1 [3]) was ~2 fold of K4 signal and the binding signal (GFP-BPC6 [4]) was ~2.5 fold of KNAT1/BP fluorescence.

B5: GAGA2 (dsDNA)
DNA 1: GGAGCAAGTAAGAGATGAAACGAGAGTTTC
DNA 2: GAAACTCTCGTTTCATCTCTTACTTGCTCC
B5: binds (GFP-BPC6 [1]).

B6: KNAT1/BP (dsDNA)
DNA 1: ATGAGGGCAAAGAGAGATGAGAGAAAATTTATACGTAC
DNA 2: GTACGTATAAATTTTCTCTCATCTCTCTTTGCCCTCAT
B6: binds (BPC1 [5]); binds (GFP-BPC6 [6]).

B7: K4 (dsDNA)
DNA 1: TAAAGGAGAAAGAAAGAGAAAGAGAGTTTC
DNA 2: GAAACTCTCTTTCTCTTTCTTTCTCCTTTA
For B7, the binding result (BPC1-WARH) was “no binding” and the binding signal (BPC1-TIR) was ~70 % of wild-type BPC1 signal.
